The values below come from publication doi:10.1101/2025.01.13.632804.

One test deals with GST-FKBP12 (mouse) (UniProt P26883). The test is described as follows: pull-down.
Test [1] addresses Porcine brain tubulin (growing microtubules) (porcine). The test is described as follows: TIRF microscopy of GFP-CRMP2A on growing microtubules in vitro.

Sequence of UniProt P26883 (P26883 whole entry): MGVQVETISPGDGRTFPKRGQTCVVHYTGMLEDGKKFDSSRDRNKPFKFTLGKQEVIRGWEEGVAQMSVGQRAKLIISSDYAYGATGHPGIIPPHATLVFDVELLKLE

Take “FLAG-CRMP2A S623A, expressed under high Cdk5 activity (natural protein)”: the pull-down signal relative to WT CRMP2A in the presence of Cdk5 with GST-FKBP12 (mouse) turned out to be 1.75.

As to “Cdk5-phosphorylated FLAG-CRMP2A (natural protein)”, in the test with GST-FKBP12 (mouse), the pull-down signal normalized to the input, relative to CRMP2A without Cdk5 turned out to be 0.39.

In the case of “FLAG-CRMP2A S27A, expressed under high Cdk5 activity (natural protein)”, in the test with GST-FKBP12 (mouse), the pull-down signal relative to WT CRMP2A in the presence of Cdk5 was 2.57. Consider “FLAG-CRMP2A S27A, S623A, expressed under high Cdk5 activity (natural protein)”, for which the pull-down signal relative to WT CRMP2A in the presence of Cdk5 in the test with GST-FKBP12 (mouse) was 2.59. In test [1], “FLAG-tagged GFP-CRMP2A (natural protein)” had a length of the GFP-positive ends of 0.297 um, a length of the GFP-positive ends (with FKBP12) of 0.133 um, a persistence of GFP signal of 33.1 s and a persistence of GFP signal (with FKBP12) of 18.7 s.

As for “FLAG-CRMP2AΔ604 (CRMP2A 1-604) (domain or fragment)”, in the test with GST-FKBP12 (mouse), the pull-down signal normalized to the input, relative to CRMP2A amounted to 2.82.
